The results in this text go back to article PMC5497066.

Experiment [1] has as its target C-terminal truncation mutant of tetradecamer GroEL, Δ526 (E. coli) (UniProt P0A6F5). In words: cryo-EM structure; acid-urea denatured PepQ (7 μM final) titrated into GroEL or Δ526 (8 μM tetradecamers) in TKM buffer, no nucleotide, room temperature 5 min; asymmetric 3D classification and refinement.
In experiment [2] the target is PepQ-24TMR (E. coli) (UniProt P21165). In words: single-molecule two-colour co-incidence detection; PepQ-24OG and PepQ-24TMR 1:1, denatured, refolded at 100 nM total monomer with GroEL, GroES and ATP at 23 °C, then diluted 1,000-fold to 100 pM; cross-correlation of fluorescence bursts.
Experiment [3] has the same target. Put plainly: single-molecule two-colour co-incidence detection; PepQ-24OG and PepQ-24TMR 1:1, denatured in acid-urea, spontaneous folding at 2 nM monomer in TKM buffer with 0.1 mg ml^-1 BSA, 23 °C, 10 min, then diluted 20-fold to 100 pM.
In experiment [4] the target is C-terminal truncation mutant of tetradecamer GroEL, Δ526 (E. coli) (UniProt P0A6F5).

A value given as a limit tells only on which side of the number the result lay.

The term stoichiometry N denotes a count of units in the complex or per binding partner. Consider “C-terminal truncation mutant of tetradecamer GroEL, Δ526 (from UniProt P0A6F5 2-526) (domain or fragment)”, for which, in experiment [1], the stoichiometry N amounted to 14. Substance “PepQ-24OG (from UniProt P21165 1-443) (enzyme)” displayed a coincident fraction with PepQ-24TMR (E. coli) [2] of 10%. In the experiment with PepQ-24TMR (E. coli) [3], the co-incidence was below 1% and the co-incidence (most likely overlap) is 0.75%. As for “wild type E. coli PepQ (from UniProt P21165 1-443) (enzyme)”, the observed folding rate constant of PepQ by recovery of enzymatic activity, bound to Δ526 (200 nM) and refolded with GroES (400 nM) and ATP (2 mM) in experiment [4] was 0.106 min⁻¹.
